Laboratory results published in patent publication US20180066070.

B1: Sirtuin (silent mating type information regulation 2 homolog) 1 (protein)
chain: MADEAALALQPGGSPSAAGADREAASSPAGEPLRKRPRRDGPGLERSPGEPGGAAPEREVPAAARGCPGAAAAALWREAEAEAAAAGGEQEAQATAAAGEGDNGPGLQGPSREPPLADNLYDEDDDDEGEEEEEAAAAAIGYRDNLLFGDEIITNGFHSCESDEEDRASHASSSDWTPRPRIGPYTFVQQHLMIGTDPRTILKDLLPETIPPPELDDMTLWQIVINILSEPPKRKKRKDINTIEDAVKLLQECKKIIVLTGAGVSVSCGIPDFRSRDGIYARLAVDFPDLPDPQAMFDIEYFRKDPRPFFKFAKEIYPGQFQPSLCHKFIALSDKEGKLLRNYTQNIDTLEQVAGIQRIIQCHGSFATASCLICKYKVDCEAVRGDIFNQVVPRCPRCPADEPLAIMKPEIVFFGENLPEQFHRAMKYDKDEVDLLIVIGSSLKVRPVALIPSSIPHEVPQILINREPLPHLHFDVELLGDCDVIINELCHRLGGEYAKLCCNPVKLSEITEKPPRTQKELAYLSELPPTPLHVSEDSSSPERTSPPDSSVIVTLLDQAAKSNDDLDVSESKGCMEEKPQEVQTSRNVESIAEQMENPDLKNVGSSTGEKNERTSVAGTVRKCWPNRVAKEQISRRLDGNQYLFLPPNRYIFHGAEVYSDSEDDVLSSSSCGSNSDSGTCQSPSLEEPMEDESEIEEFYNGLEDEPDVPERAGGAGFGTDGDDQEAINEAISVKQEVTDMNYPSNKS
acetyl-PCSK9-AMC peptide
  increase in fluorescence caused by deacetylation of fluorogenic PCSK9 peptide: SIRT1 deacetylates fluorogenic PCSK9 peptide
Recombinant PCSK9
  deacetylation in vitro (SDS-PAGE, blots for acetyl-lysine and PCSK9): PCSK9 is deacetylated by SIRT1 in vitro
